Data reported in patent publication US20230365685A1 (SUZHOU NEOLOGICS BIOSCIENCE, published 2023).
Changes are numbered by the printed parent chain.

T1: cynomolgus TIM-3 (cynomolgus, UniProt A0A2K5U3G7 22-294)
T1 construct: whole, on cells
T1 sequence: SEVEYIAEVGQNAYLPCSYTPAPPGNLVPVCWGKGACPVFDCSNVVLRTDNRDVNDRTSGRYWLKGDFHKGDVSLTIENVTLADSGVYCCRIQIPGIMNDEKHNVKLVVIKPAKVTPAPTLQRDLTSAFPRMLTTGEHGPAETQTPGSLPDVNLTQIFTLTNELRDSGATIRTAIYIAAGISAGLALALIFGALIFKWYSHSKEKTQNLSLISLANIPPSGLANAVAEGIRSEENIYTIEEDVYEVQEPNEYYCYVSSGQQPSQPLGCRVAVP

B1: 16H1 (antibody, V domains shown)
VH: QVQLQQSGPQLVRPGSSVQISCKTSGYSFTSYLMHWVRQRPGQGLEWIGSIDPSDSEISLNQKFMDKATLTVDKSSSTANMQFSSPTSEDSAVYFCARDFGYVAWFVYWGQGTLVTVSA
VL: DIVMTQSHKFMSTSIEDRVSITCKASQDVSAAVAWYQQKPGQTPKLLIYSTFYRYIGVPDRFTGSGSGTDFTFTITSVQAEDLAVYFCQQHYSVPWTFGGGTKLEIK
notes: also called I6H1
B2: CH 11# (antibody, V domains shown)
VH: QVKLQQSGPDLVKPGASVKISCKASGYSFTGYYMHWVKQSHGKSLEWIGRVNPNNGGTTYKQKFKGKVILTVDKSSSTAYMELRSLTSEDSAVYYCAREGEYFDYYTMDYWGQGTTVTVSS
VL: DIELTQSPASLAVSLGQRATISCRASESVEYYGTSLMQWYQQKPGQPPKLLIYAASNVESGVPARFSGSVSGTDFSLNIHPVEEDDIAVYFCQQSRKVPITFGSGTKLELK
B3: 4H2 (antibody, V domains shown)
VH: EVQLQESGPSLVKPSQTLSLTCSVTGDSITSGYWNWIRKFPGNKLEYMGYINYSGSTYYNPSLKSRISITRDTSKNQYYLQLNSVTTEDTATYYCATGNHFDYWGQGTTLTVSS
VL: DIQMTQSPSSLSASLGGKVTITCKASQDINKYIAWYQHKPGKGPRLLIHYTSTLQPGIPSRFSGSGSGTDYSFSISNLEPEDFATYYCLQYDNLLFTFGSGTKLEIK
B4: 3E6 (antibody, V domains shown)
VH: DVQLQEAGPGLVKPSQSLSLNCTVTGYSITSGFAWNWIRQFPGNKLEWMGYISHSGSTSYNPSLKSRISITRDTSKNQFFLQLNSVTTEDTATYYCARGYRSPWFAYWGQGTLVTVSA
VL: DIIMTQSQKFMSTSVGDRVSVTCKASQNVGANVAWYQQKPRQSPKALIYSASYRYSGVPDRFTGSGSGTDFTLTISNVQSEDLAEYFCQQYNSYPTFGGGTKLEIK
B5: 19D11 (antibody, V domains shown)
VH: B4 VH with A7S, G10D, N21T, F33Y, A34S, N36H, S53Y, H54F, S59N, P103A
VL: DIVMTQSQKFMSTSVGDRVSVTCKASQNVGTNVAWYQQKPGQSPKTLIYSASYRYSGVPDRFTGSGSGTDFTLTISNVQSEDLAEYFCQQYNSYPLVTFGTGTKLELK
B6: CH 10# (antibody, V domains shown)
VH: QVQLQQSGAELMKPGASVKISCKAIGYTFSSYWIEWVKQRPGHGLEWIGEISPGRGSTNYNEKFKGKATFTADTSSNTAYMQLSSLTSEDSAVYYCARDYYGSIFDVWGQGTTVTVSS
VL: DIELTQSPALMAASPGEKVTITCSASSSVSSSYLHWYQQKPGSSPKLWIYSTSNLASGVPARFSGSGSGTSYSLTISSMEAEDAATYYCQQWSSYPLTFGAGTKLEIK
B7: 3E6 VH5/3E6 VL0 (antibody, V domains shown)
VH: QVQLQESGPGLVKPSQTLSLTCTVSGYSITSGFAWNWIRQPPGNGLEWIGYISHSGSTSYNPSLKSRITISRDTSKNQFSLKLSSVTAADTAVYYCARGYRSPWFAYWGQGTTVTVSS
VL: DIQMTQSPSSLSASVGDRVTITCKASQNVGANVAWYQQKPGKAPKSLIYSASYRYSGVPSRFSGSGSGTDFTLTISSLQPEDFATYYCQQYNSYPTFGGGTKVEIK
notes: Humanized 3E6; VH and VL cloned into vectors with constant regions (CH1-FC/CL) and expressed in 293F cells; also called humanized 3E6 VH5/VL0
B8: 3E6 VH6/3E6 VL0 (antibody, V domains shown)
VH: B7 VH with N44K, I49M, R72V
VL: B7 VL
notes: Humanized 3E6; VH and VL cloned into vectors with constant regions (CH1-FC/CL) and expressed in 293F cells; also called humanized 3E6 VH6/VL0
B9: 3E6 VH7/3E6 VL0 (antibody, V domains shown)
VH: B7 VH with N44K, I49M
VL: B7 VL
notes: Humanized 3E6; VH and VL cloned into vectors with constant regions (CH1-FC/CL) and expressed in 293F cells; also called humanized 3E6 VH7/VL0
B10: 3F2 (antibody, V domains shown)
VH: EVQLQQSGPELVKTGSSVKISCKASGYSFTGYYMHWVRQSPGKSLEWIGYISCYNGATNYNQKFKGKATFTVDTYSSTAYMQFDSLASEDSAVYYCVRDYYLSVMDYWGQGTSVTVSS
VL: NIMMTQSPSSLAVSAGEKVTMSCKSSQSVLYSSNQKNYLAWYQQKPGQSPKLLIYWASFRESGVPDRFTGSGSGTDFTLTISSVQAEDLAVYYCHQSLSSYTFGGGTKLEIK
B11: 39D1 (antibody, V domains shown)
VH: QVQLQQSGAELMKPGASVKISCKATGYTFSSSYWIEWVKQRPGHGLEWIGEILPGSGSINYNEKFKGKATFTADTSSNTVYMQLSSLTSDDSAVYYCARSYYYVMDYWGQGTSVTVSS
VL: QIVLTQSPAIMSASPGEMLTITCSASSSVRFMHWFQQKPGTSPKLWIYSTSNLASGVPARFSGSGSGTSYSLTVSRMEAEDAATYYCQQRSSYPPTFGGGTKLEIK

target: T2, biotinylated human TIM-3 (human, UniProt Q8TDQ0 22-202, limits assumed, biotinylated (sites not given)); experiment: competition ELISA: antibody coated, biotinylated human TIM-3 preincubated with competitor TSR022
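Wherever inhibit percentage is given: plate-coated antibody at 2 µg/mL.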

inhibit percentage [%]	Binder
4.02	B1
0	B2
16.7	B3
16.4	B4
10.3	B5
48.5	B6

target: T2, biotinylated human TIM-3; experiment: competition ELISA: antibody coated, biotinylated human TIM-3 preincubated with competitor CH 10#
Protocol: (§1) Antibodies were diluted with PBS to 2 μg/mL. 50 μl antibody solution was added to each well of the 96-well plate, which was incubated at 4° C. overnight. The plate was then washed with wash buffer (0.05% Tween in PBS) three times and blocked with 5% skim milk in PBS at 37° C. for two hours. The biotinylated human TIM-3 and antibodies were preincubated at room temperature for half an hour and then added to the plate. The plate was then incubated at room temperature for 1 hour and washed three times with wash buffer. 50 μl streptavidin HRP (1:1000, BD) was then added to each well at room temperature and incubated for about 1 hour. 50 μl of TMB substrate was added to each well, and the reaction was then terminated with 50 μl HCL after 1-5 minutes. Absorbance was read at 450 nm and IC50 value was analyzed.

inhibit percentage [%]	Binder
15.1	B1
98.2	B2
56.8	B3
50.1	B4
100	B5
100	B6

target: T2, biotinylated human TIM-3; experiment: competition ELISA: antibody coated, biotinylated human TIM-3 preincubated with competitor CH 11#
Protocol: as §1

inhibit percentage [%]	Binder
8.26	B1
100	B2
62.5	B3
67.1	B4
100	B5
99.7	B6

target: T2, biotinylated human TIM-3; experiment: competition ELISA: antibody coated, biotinylated human TIM-3 preincubated with competitor MBG453
Protocol: as §1

inhibit percentage [%]	Binder
81.7	B1
29.4	B2
28	B3
24.9	B4
0	B5
35.4	B6

target: T3, human TIM-3 (human, UniProt Q8TDQ0 22-202, limits assumed); experiment: BLI (Octet-96); antigen not named in the paragraph
T3 construct: also called HAVCR2; target antigen

Kd [nM]	Binder
1.78	B7
1.46	B8
1.96	B9

target: T4, mouse TIM-3 (mouse, UniProt Q8VIM0 20-281); experiment: flow cytometry on cells stably expressing mouse TIM-3, PE-labelled secondary antibody; concentration not shown
T4 construct: whole, on cells

binding result	Binder
no binding	B1
no binding	B2
no binding	B3
no binding	B4
no binding	B5
no binding	B6

target: T1, cynomolgus TIM-3; experiment: flow cytometry on 293T cells stably expressing cynomolgus TIM-3, serially diluted antibody, PE-labelled secondary antibody [lower panel]
Protocol: (§2) Briefly, serially diluted anti-TIM-3 antibodies were incubated with cell lines stably expressing mouse TIM-3 or cynomolgus TIM-3 (10⁵ cells/well). Then, PE-labelled mouse anti-human IgG antibody (Biolegend) was used as detection antibody. A flow cytometer (Canto II, BD, USA) was used to measure fluorescence.

EC50 (read off the curve) [µg/mL]	Binder
~0.4	B10
~0.02	B11

target: T2, biotinylated human TIM-3; experiment: competition ELISA: antibody coated, biotinylated human TIM-3 preincubated with competitor 16H1
Protocol: as §1

inhibit percentage [%]	Binder
100	B1
0	B2
28.9	B3
26.3	B4
0	B5
45.8	B6

target: T2, biotinylated human TIM-3; experiment: competition ELISA: antibody coated, biotinylated human TIM-3 preincubated with competitor 4H2
Protocol: as §1

inhibit percentage [%]	Binder
64.7	B1
99.6	B2
100	B3
99.6	B4
100	B5
98.6	B6

target: T2, biotinylated human TIM-3; experiment: competition ELISA: antibody coated, biotinylated human TIM-3 preincubated with competitor 19D11
Protocol: as §1

inhibit percentage [%]	Binder
0.06	B1
99.4	B2
39	B3
38.7	B4
100	B5
98.1	B6

target: T5, human TIM-3 recombinant protein (TIM-3-his) (human, UniProt Q8TDQ0 22-202); experiment: biosensor (HFC sensor, Probe Life): antibody captured, TIM-3-his in solution, 1:1 fit;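 further: antigen applied as a twofold dilution series, association and dissociation phases recorded, KD obtained as koff divided by kon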
T5 construct: also called TIM-3 protein; not shown: His tag

Kd [nM]	koff [s⁻¹]	kon [M⁻¹ s⁻¹]	Binder
0.168	0.000218	1.3e+06	B1
19.1	0.000705	36900	B2
0.424	0.000558	1.32e+06	B3
0.23	0.000284	1.24e+06	B4
0.604	0.00037	613000	B5
38.2	0.00148	38600	B6
1.11	0.00066	596000	B10
1.13	0.00141	1.25e+06	B11

target: T3, human TIM-3; experiment: blocking assay, flow cytometry: antibody preincubated with recombinant human TIM-3-Fc, then binding of TIM-3-Fc to apoptotic 293T cells; blocked ligand: phosphatidylserine
Protocol: After the cells were washed once, PE-labelled goat anti-mouse IgG antibody was added and incubated for 1 hour at 4° C. Finally, samples were washed once with 1× Annexin-V buffer and fluorescence was measured with a flow cytometer (Canto II, BD, USA).

IC50 (read off the curve) [µg/mL]	Binder
~2	B1
~4	B3
~4	B4
~7	B5
~4	B6

target: T2, biotinylated human TIM-3; experiment: competition ELISA: antibody coated, biotinylated human TIM-3 preincubated with competitor 3E6
Protocol: as §1

inhibit percentage [%]	Binder
60	B1
97.8	B2
99.9	B3
100	B4
100	B5
98.2	B6

target: T1, cynomolgus TIM-3; experiment: flow cytometry on 293T cells stably expressing cynomolgus TIM-3, serially diluted antibody, PE-labelled secondary antibody [upper panel]
Protocol: as §2

EC50 (read off the curve) [µg/mL]	Binder
~0.04	B1
~0.07	B3
~0.1	B4
